Target: Schistosoma japonicum glutathione S-transferase (GST) (Schistosoma japonicum)
Experiment: cross-linking

For “Schistosoma japonicum glutathione S-transferase (GST) (enzyme)”, the stoichiometry N was 2.
